# Measurements as given in US20140087995A1 (published 2014).
# Numbered stars: 1 amine (or outer) side, 2 acyl side, 3 side chain; on linkers, the order of the positions; unused ones are H or OH. Bridge positions count the residues as written; N and C are the ends. Side chains are listed from the residue outwards. Ends that are not written are not given here. * marks the point of attachment. C20 diacid = O=C(O)CCCCCCCCCCCCCCCCCCC(=O)*; γGlu = O=C(O)[C@H](CCC(=O)[*:2])N[*:1]
# B1: N^ε1-[(4S)-4-carboxy-4-(19-carboxynonadecanoylamino)butanoyl]-[Asp14,Arg17,Pro21,Pro27,Pro34,Arg35]-h-amylin (peptide)
# peptide: K([γGlu-C20 diacid])CNTATCATQRLADFLRHSSPNFGAIPSSTNVGPRTY-NH2
# modifications: disulfide 2-7; N-terminus assumed
# SMILES: CC[C@H](C)[C@H](NC(=O)[C@H](C)NC(=O)CNC(=O)[C@H](Cc1ccccc1)NC(=O)[C@H](CC(N)=O)NC(=O)[C@@H]1CCCN1C(=O)[C@H](CO)NC(=O)[C@H](CO)NC(=O)[C@H](Cc1c[nH]cn1)NC(=O)[C@H](CCCNC(=N)N)NC(=O)[C@H](CC(C)C)NC(=O)[C@H](Cc1ccccc1)NC(=O)[C@H](CC(=O)O)NC(=O)[C@H](C)NC(=O)[C@H](CC(C)C)NC(=O)[C@H](CCCNC(=N)N)NC(=O)[C@H](CCC(N)=O)NC(=O)[C@@H](NC(=O)[C@H](C)NC(=O)[C@@H]1CSSC[C@H](NC(=O)[C@@H](N)CCCCNC(=O)CC[C@H](NC(=O)CCCCCCCCCCCCCCCCCCC(=O)O)C(=O)O)C(=O)N[C@@H](CC(N)=O)C(=O)N[C@@H]([C@@H](C)O)C(=O)N[C@@H](C)C(=O)N[C@@H]([C@@H](C)O)C(=O)N1)[C@@H](C)O)C(=O)N1CCC[C@H]1C(=O)N[C@@H](CO)C(=O)N[C@@H](CO)C(=O)N[C@H](C(=O)N[C@@H](CC(N)=O)C(=O)N[C@H](C(=O)NCC(=O)N1CCC[C@H]1C(=O)N[C@@H](CCCNC(=N)N)C(=O)N[C@H](C(=O)N[C@@H](Cc1ccc(O)cc1)C(N)=O)[C@@H](C)O)C(C)C)[C@@H](C)O
# B2: N^ε1-[(4S)-4-carboxy-4-(19-carboxynonadecanoylamino)butanoyl]-[Glu14,Arg17,Pro21,Pro27,His34,Glu35]-h-amylin (peptide)
# peptide: K([γGlu-C20 diacid])CNTATCATQRLAEFLRHSSPNFGAIPSSTNVGHETY-NH2
# modifications: disulfide 2-7; N-terminus assumed
# SMILES: CC[C@H](C)[C@H](NC(=O)[C@H](C)NC(=O)CNC(=O)[C@H](Cc1ccccc1)NC(=O)[C@H](CC(N)=O)NC(=O)[C@@H]1CCCN1C(=O)[C@H](CO)NC(=O)[C@H](CO)NC(=O)[C@H](Cc1c[nH]cn1)NC(=O)[C@H](CCCNC(=N)N)NC(=O)[C@H](CC(C)C)NC(=O)[C@H](Cc1ccccc1)NC(=O)[C@H](CCC(=O)O)NC(=O)[C@H](C)NC(=O)[C@H](CC(C)C)NC(=O)[C@H](CCCNC(=N)N)NC(=O)[C@H](CCC(N)=O)NC(=O)[C@@H](NC(=O)[C@H](C)NC(=O)[C@@H]1CSSC[C@H](NC(=O)[C@@H](N)CCCCNC(=O)CC[C@H](NC(=O)CCCCCCCCCCCCCCCCCCC(=O)O)C(=O)O)C(=O)N[C@@H](CC(N)=O)C(=O)N[C@@H]([C@@H](C)O)C(=O)N[C@@H](C)C(=O)N[C@@H]([C@@H](C)O)C(=O)N1)[C@@H](C)O)C(=O)N1CCC[C@H]1C(=O)N[C@@H](CO)C(=O)N[C@@H](CO)C(=O)N[C@H](C(=O)N[C@@H](CC(N)=O)C(=O)N[C@H](C(=O)NCC(=O)N[C@@H](Cc1c[nH]cn1)C(=O)N[C@@H](CCC(=O)O)C(=O)N[C@H](C(=O)N[C@@H](Cc1ccc(O)cc1)C(N)=O)[C@@H](C)O)C(C)C)[C@@H](C)O
# notes: also called compound 107
# B3: N^ε1-[(4S)-4-carboxy-4-(19-carboxynonadecanoylamino)butanoyl]-[Glu14,Arg17,Pro21,Pro27,Arg34,Glu35]-h-amylin (peptide)
# peptide: K([γGlu-C20 diacid])CNTATCATQRLAEFLRHSSPNFGAIPSSTNVGRETY-NH2
# modifications: disulfide 2-7; N-terminus assumed
# SMILES: CC[C@H](C)[C@H](NC(=O)[C@H](C)NC(=O)CNC(=O)[C@H](Cc1ccccc1)NC(=O)[C@H](CC(N)=O)NC(=O)[C@@H]1CCCN1C(=O)[C@H](CO)NC(=O)[C@H](CO)NC(=O)[C@H](Cc1c[nH]cn1)NC(=O)[C@H](CCCNC(=N)N)NC(=O)[C@H](CC(C)C)NC(=O)[C@H](Cc1ccccc1)NC(=O)[C@H](CCC(=O)O)NC(=O)[C@H](C)NC(=O)[C@H](CC(C)C)NC(=O)[C@H](CCCNC(=N)N)NC(=O)[C@H](CCC(N)=O)NC(=O)[C@@H](NC(=O)[C@H](C)NC(=O)[C@@H]1CSSC[C@H](NC(=O)[C@@H](N)CCCCNC(=O)CC[C@H](NC(=O)CCCCCCCCCCCCCCCCCCC(=O)O)C(=O)O)C(=O)N[C@@H](CC(N)=O)C(=O)N[C@@H]([C@@H](C)O)C(=O)N[C@@H](C)C(=O)N[C@@H]([C@@H](C)O)C(=O)N1)[C@@H](C)O)C(=O)N1CCC[C@H]1C(=O)N[C@@H](CO)C(=O)N[C@@H](CO)C(=O)N[C@H](C(=O)N[C@@H](CC(N)=O)C(=O)N[C@H](C(=O)NCC(=O)N[C@@H](CCCNC(=N)N)C(=O)N[C@@H](CCC(=O)O)C(=O)N[C@H](C(=O)N[C@@H](Cc1ccc(O)cc1)C(N)=O)[C@@H](C)O)C(C)C)[C@@H](C)O
# B4: N^ε1-[(4S)-4-carboxy-4-(19-carboxynonadecanoylamino)butanoyl]-[Asp14,Arg17,Pro21,Pro27,Pro34,Glu35]-h-amylin (peptide)
# peptide: K([γGlu-C20 diacid])CNTATCATQRLADFLRHSSPNFGAIPSSTNVGPETY-NH2
# modifications: disulfide 2-7; N-terminus assumed
# SMILES: CC[C@H](C)[C@H](NC(=O)[C@H](C)NC(=O)CNC(=O)[C@H](Cc1ccccc1)NC(=O)[C@H](CC(N)=O)NC(=O)[C@@H]1CCCN1C(=O)[C@H](CO)NC(=O)[C@H](CO)NC(=O)[C@H](Cc1c[nH]cn1)NC(=O)[C@H](CCCNC(=N)N)NC(=O)[C@H](CC(C)C)NC(=O)[C@H](Cc1ccccc1)NC(=O)[C@H](CC(=O)O)NC(=O)[C@H](C)NC(=O)[C@H](CC(C)C)NC(=O)[C@H](CCCNC(=N)N)NC(=O)[C@H](CCC(N)=O)NC(=O)[C@@H](NC(=O)[C@H](C)NC(=O)[C@@H]1CSSC[C@H](NC(=O)[C@@H](N)CCCCNC(=O)CC[C@H](NC(=O)CCCCCCCCCCCCCCCCCCC(=O)O)C(=O)O)C(=O)N[C@@H](CC(N)=O)C(=O)N[C@@H]([C@@H](C)O)C(=O)N[C@@H](C)C(=O)N[C@@H]([C@@H](C)O)C(=O)N1)[C@@H](C)O)C(=O)N1CCC[C@H]1C(=O)N[C@@H](CO)C(=O)N[C@@H](CO)C(=O)N[C@H](C(=O)N[C@@H](CC(N)=O)C(=O)N[C@H](C(=O)NCC(=O)N1CCC[C@H]1C(=O)N[C@@H](CCC(=O)O)C(=O)N[C@H](C(=O)N[C@@H](Cc1ccc(O)cc1)C(N)=O)[C@@H](C)O)C(C)C)[C@@H](C)O
# B5: N^ε1-[(4S)-4-carboxy-4-(19-carboxynonadecanoylamino)butanoyl]-[Glu14,Arg17,Pro21,Pro27,His35]-h-amylin (peptide)
# peptide: K([γGlu-C20 diacid])CNTATCATQRLAEFLRHSSPNFGAIPSSTNVGSHTY-NH2
# modifications: disulfide 2-7; N-terminus assumed
# SMILES: CC[C@H](C)[C@H](NC(=O)[C@H](C)NC(=O)CNC(=O)[C@H](Cc1ccccc1)NC(=O)[C@H](CC(N)=O)NC(=O)[C@@H]1CCCN1C(=O)[C@H](CO)NC(=O)[C@H](CO)NC(=O)[C@H](Cc1c[nH]cn1)NC(=O)[C@H](CCCNC(=N)N)NC(=O)[C@H](CC(C)C)NC(=O)[C@H](Cc1ccccc1)NC(=O)[C@H](CCC(=O)O)NC(=O)[C@H](C)NC(=O)[C@H](CC(C)C)NC(=O)[C@H](CCCNC(=N)N)NC(=O)[C@H](CCC(N)=O)NC(=O)[C@@H](NC(=O)[C@H](C)NC(=O)[C@@H]1CSSC[C@H](NC(=O)[C@@H](N)CCCCNC(=O)CC[C@H](NC(=O)CCCCCCCCCCCCCCCCCCC(=O)O)C(=O)O)C(=O)N[C@@H](CC(N)=O)C(=O)N[C@@H]([C@@H](C)O)C(=O)N[C@@H](C)C(=O)N[C@@H]([C@@H](C)O)C(=O)N1)[C@@H](C)O)C(=O)N1CCC[C@H]1C(=O)N[C@@H](CO)C(=O)N[C@@H](CO)C(=O)N[C@H](C(=O)N[C@@H](CC(N)=O)C(=O)N[C@H](C(=O)NCC(=O)N[C@@H](CO)C(=O)N[C@@H](Cc1c[nH]cn1)C(=O)N[C@H](C(=O)N[C@@H](Cc1ccc(O)cc1)C(N)=O)[C@@H](C)O)C(C)C)[C@@H](C)O
# Biological target: T1, rat amylin receptor (rat calcitonin receptor + rat RAMP 3) (rat, UniProt P32214 25-516; Q9JJ73 23-147)
# T1 construct: whole, on cells; Membranes prepared from transiently transfected BHK tk'ts 13 cells; also called rAmylin-R; rat amylin 3(a) receptor
# T1 sequence (looked up) 1: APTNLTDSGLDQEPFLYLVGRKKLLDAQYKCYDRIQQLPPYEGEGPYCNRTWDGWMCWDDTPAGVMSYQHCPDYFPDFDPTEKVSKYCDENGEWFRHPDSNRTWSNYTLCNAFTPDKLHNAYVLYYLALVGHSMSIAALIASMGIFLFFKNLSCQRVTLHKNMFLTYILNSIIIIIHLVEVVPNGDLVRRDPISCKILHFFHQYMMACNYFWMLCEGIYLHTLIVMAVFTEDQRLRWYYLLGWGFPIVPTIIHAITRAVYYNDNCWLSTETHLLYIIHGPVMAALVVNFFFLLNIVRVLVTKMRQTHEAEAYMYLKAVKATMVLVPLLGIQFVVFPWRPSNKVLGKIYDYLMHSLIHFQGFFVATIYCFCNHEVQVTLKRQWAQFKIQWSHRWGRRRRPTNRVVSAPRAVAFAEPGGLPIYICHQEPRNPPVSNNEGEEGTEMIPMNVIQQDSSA
# T1 sequence (looked up) 2: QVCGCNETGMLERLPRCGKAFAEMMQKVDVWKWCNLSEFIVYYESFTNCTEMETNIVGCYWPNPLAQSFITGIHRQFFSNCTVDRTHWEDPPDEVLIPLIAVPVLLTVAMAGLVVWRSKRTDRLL
# Assay: SPA competition vs 125I-rat amylin, membranes (Assay VI)
row,Binder,IC50 [nM]
1,B1,0.504
2,B2,0.958
3,B3,1.06
4,B4,0.3
5,B5,1.16

# Biological target: T2, human calcitonin receptor (human, UniProt P30988 25-474)
# T2 construct: whole, on cells; Membranes from stably transfected BHK cells; also called hCTR; hCT
# T2 sequence (looked up): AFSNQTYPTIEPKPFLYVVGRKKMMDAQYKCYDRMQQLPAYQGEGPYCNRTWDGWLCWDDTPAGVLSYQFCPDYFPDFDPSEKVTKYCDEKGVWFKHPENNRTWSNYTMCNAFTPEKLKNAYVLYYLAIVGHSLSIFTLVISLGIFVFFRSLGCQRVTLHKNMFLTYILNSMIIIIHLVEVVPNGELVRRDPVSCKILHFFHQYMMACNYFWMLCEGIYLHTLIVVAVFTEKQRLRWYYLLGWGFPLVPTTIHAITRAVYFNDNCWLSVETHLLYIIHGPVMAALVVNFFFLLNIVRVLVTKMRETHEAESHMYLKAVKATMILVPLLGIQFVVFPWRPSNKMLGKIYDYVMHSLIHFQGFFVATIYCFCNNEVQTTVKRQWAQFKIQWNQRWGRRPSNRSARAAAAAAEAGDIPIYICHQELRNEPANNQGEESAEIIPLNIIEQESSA
# Assay: ratio of IC50 on human calcitonin receptor to IC50 on human amylin receptor
# Procedure, shortened: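 IC₅₀ values were derived by one-site competition analysis of SPA counts. Cell membranes (35 ng/μL) with SPA beads were incubated with test compounds for 120 min at 25° C in Hepes buffer, pH 7.4, containing CaCl2, MgCl₂, OA and Tween20.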
row,Binder,Ratio hCT/hAmylin binding
1,B1,151
2,B2,11.1
3,B3,28.5
4,B4,16.7
5,B5,26.4

# Biological target: T3, rat calcitonin receptor (rat, UniProt P32214 25-516)
# T3 construct: whole, on cells; Membranes prepared from transiently transfected BHK tk'ts 13 cells; also called rCTR; rat calcitonin (a) receptor
# T3 sequence (looked up): T1 sequence (looked up) 1
# Assay: SPA competition vs 125I-calcitonin, membranes (Assay VIII)
row,Binder,IC50 [nM]
1,B1,58.5
2,B2,33.1
3,B3,86.1
4,B4,18.6
5,B5,26.3

# Biological target: T3, rat calcitonin receptor
# Assay: ratio of IC50 on rat calcitonin receptor to IC50 on rat amylin receptor
row,Binder,Ratio rCT/rAmylin binding
1,B1,116
2,B2,34.6
3,B3,81.1
4,B4,62
5,B5,22.7
